± gives the uncertainty stated by the source.
Test: amyloid nucleation score (Sup35N fusion, yeast selection) (log enrichment); library NNK1; higher = more nucleation; inactive = no reads after selection
How it was run: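 Nucleation score is defined as the DiMSum log enrichment of output over input reads, with centring on the mode score of non-aggregating sequences. A minimum of 100 input reads was required for each sequence. Reads came from Illumina sequencing of plasmid inserts from psi-negative yeast expressing Sup35N fused to peptides of 20 random codons, induced with 100 μM copper sulfate for 24 hours and grown 7 days at 30°C on medium lacking adenine and uracil.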

| Substance | amyloid nucleation score |
| --- | --- |
| VEEAYER | -0.485 ± 0.5 |
| VEGRVSEFGRLHMSCYTGLR | -0.076 ± 0.48 |
| VELLIEFLSRLGWIGCRHVL | 0.08 ± 0.86 |
| VEMNFSFVGR | 2.62 ± 0.23 |
| VEVATPLTGSLQLPASYIMP | inactive |
| VFAFA | 0.126 ± 0.48 |
| VFASGAAGTKFWR | 0.302 ± 0.27 |
| VFAVERCDFSLRPNVMLVSY | 1.08 ± 0.92 |
| VFHAAVM | -0.192 ± 0.93 |
| VFHSMC | 0.761 ± 0.39 |
| VFNVV | -0.605 ± 0.52 |
| VFRALKRVISRTYCMISFLK | 0.458 ± 0.79 |
| VFRTLHSPSVSSGRWSSELS | -0.475 ± 0.5 |
| VFSCLLHYIFKAMLGYSVCL | -0.155 ± 0.3 |
| VFSCWKAVILIPVQGVLVQR | 0.616 ± 0.41 |
| VFTFLSMLRWVIFCNVVGVD | inactive |
| VFTHAFNMLCVFYTSQGLKR | 5.35 ± 0.1 |
| VFTSNGNDLPISRSELRLNL | inactive |
| VFVHFVSQWDFEATWT | 0.27 ± 0.71 |
| VFVICCKRREAG | -0.295 ± 0.34 |
| VFVSCIILRRYFYMFLVGPF | 0.752 ± 0.45 |
| VFVVN | -0.557 ± 0.55 |

| Substance | amyloid nucleation score |
| --- | --- |
| VFWVNFLFYYGSLLHSKGV | -1.05 ± 1 |
| VFWWT | -0.575 ± 0.29 |
| VGAFVSRVSLLDADGLLLGS | -0.09 ± 0.61 |
| VGDVTGF | 0.154 ± 0.95 |
| VGEALYHESSGTVNLEILCS | inactive |
| VGLCYRGKWDGFLDKKVRWK | -1.73 ± 2.7 |
| VGLTARHKCWVGTCRGGPRT | -0.711 ± 1.3 |
| VGLVLKIHVYNYFMETAQQS | 6.555 ± 0.053 |
| VGNMRYL | -0.332 ± 0.5 |
| VGNRRYNTSVMALSNQRNTR | 0.636 ± 1 |
| VGRGSGPRAQYMWLSKTEAG | -0.2 ± 0.47 |
| VGRRNKVAWVKLRHEVRRCV | 0.106 ± 0.52 |
| VGSSNTTNKYPGFCCWRFDG | 0.444 ± 0.53 |
| VGTFTGV | -0.189 ± 0.43 |
| VGVWLFCLAYWE | inactive |
| VGWFFMYVPSSSAVFSKFLN | inactive |
| VHNPSVNDLYFLVICCVYLF | 0.484 ± 0.26 |
| VHRRRIRQSAWVRGAVSTFR | -0.011 ± 0.4 |
| VHSCFHFSNKGRLVWFPSFH | inactive |
| VHWRYWFVLISLDQRIGKA | 0.199 ± 0.21 |
| VIAFCSRPDC | 0.425 ± 0.52 |
| VIASSATGYIHR | 2.46 ± 0.12 |

| Substance | amyloid nucleation score |
| --- | --- |
| VIDEFLSMCRVNMMGGVCRV | 2.28 ± 0.35 |
| VIERFMAKRPGC | 0.698 ± 0.68 |
| VIFRDPGQRRLSC | -0.858 ± 2.1 |
| VIGVGKMLGNNHYPLSDQGL | -0.05 ± 0.26 |
| VIHYSGLSMVAVQ | -0.379 ± 0.49 |
| VINCITRLDVQYRKHTPFAN | -0.382 ± 0.3 |
| VISSSVWFFATMQDCWVGRQ | 0.509 ± 0.69 |
| VKESRCCSYGTVRSISQGLG | -0.512 ± 0.89 |
| VKEWGTNSVLGSYTVAQEMS | 0.096 ± 0.94 |
| VKHFLSDMRLFIGPKIFMRC | 4.49 ± 0.062 |
| VKLCRACCYEYWRHHSPLGC | 0.594 ± 0.43 |
| VKLFSVNKNNMTVPSTALCS | 5.969 ± 0.047 |
| VKRLTRAVFCSFKSRVARSS | 0.238 ± 0.58 |
| VKRRVSDTHVSCVKGHGSVC | inactive |
| VKSNFLHSGKIGYTSAVGFG | -1.16 ± 1.9 |
| VKSQCECHVSSFALFCWARD | 3.85 ± 0.1 |
| VKTNWLNWWLLNGLRASRCL | 0.062 ± 0.58 |
| VKTPTDRSYRLHGNFIGCWA | -0.576 ± 0.38 |
| VKYSVENCMITWDVYMGASL | -0.561 ± 0.29 |
| VLCLWISGLPVLCSVCDPLV | 0.1 ± 0.45 |

— the supplement of paper PMC12042874
